Values of other authors as cited in PMC11945212.
pKd: −log10 of the molar value.

Biological target: Adducin (Homo sapiens) (UniProt P35611)
UniProt P35611, sequence (P35611 whole entry, chain 1 of 2): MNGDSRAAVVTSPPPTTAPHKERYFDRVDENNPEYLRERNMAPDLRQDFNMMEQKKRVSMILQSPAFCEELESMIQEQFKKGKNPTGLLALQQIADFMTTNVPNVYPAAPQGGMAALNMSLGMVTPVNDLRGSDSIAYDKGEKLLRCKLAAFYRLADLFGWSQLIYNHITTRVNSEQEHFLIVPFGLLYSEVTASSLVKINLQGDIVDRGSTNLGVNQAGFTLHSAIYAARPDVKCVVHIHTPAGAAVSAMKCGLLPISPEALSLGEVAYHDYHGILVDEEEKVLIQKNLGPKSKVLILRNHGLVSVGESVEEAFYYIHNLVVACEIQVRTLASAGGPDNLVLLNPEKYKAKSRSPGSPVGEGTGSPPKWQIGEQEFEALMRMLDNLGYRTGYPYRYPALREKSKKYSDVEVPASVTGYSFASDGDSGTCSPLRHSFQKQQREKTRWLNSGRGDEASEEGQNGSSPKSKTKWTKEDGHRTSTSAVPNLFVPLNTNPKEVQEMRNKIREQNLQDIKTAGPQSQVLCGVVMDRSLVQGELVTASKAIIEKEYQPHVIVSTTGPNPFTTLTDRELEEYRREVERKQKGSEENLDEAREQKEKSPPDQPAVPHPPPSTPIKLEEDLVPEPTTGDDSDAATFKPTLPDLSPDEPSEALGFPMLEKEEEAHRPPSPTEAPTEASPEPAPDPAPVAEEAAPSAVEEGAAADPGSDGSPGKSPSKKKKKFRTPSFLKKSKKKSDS
UniProt P35611, sequence (P35612 whole entry, chain 2 of 2, further chain): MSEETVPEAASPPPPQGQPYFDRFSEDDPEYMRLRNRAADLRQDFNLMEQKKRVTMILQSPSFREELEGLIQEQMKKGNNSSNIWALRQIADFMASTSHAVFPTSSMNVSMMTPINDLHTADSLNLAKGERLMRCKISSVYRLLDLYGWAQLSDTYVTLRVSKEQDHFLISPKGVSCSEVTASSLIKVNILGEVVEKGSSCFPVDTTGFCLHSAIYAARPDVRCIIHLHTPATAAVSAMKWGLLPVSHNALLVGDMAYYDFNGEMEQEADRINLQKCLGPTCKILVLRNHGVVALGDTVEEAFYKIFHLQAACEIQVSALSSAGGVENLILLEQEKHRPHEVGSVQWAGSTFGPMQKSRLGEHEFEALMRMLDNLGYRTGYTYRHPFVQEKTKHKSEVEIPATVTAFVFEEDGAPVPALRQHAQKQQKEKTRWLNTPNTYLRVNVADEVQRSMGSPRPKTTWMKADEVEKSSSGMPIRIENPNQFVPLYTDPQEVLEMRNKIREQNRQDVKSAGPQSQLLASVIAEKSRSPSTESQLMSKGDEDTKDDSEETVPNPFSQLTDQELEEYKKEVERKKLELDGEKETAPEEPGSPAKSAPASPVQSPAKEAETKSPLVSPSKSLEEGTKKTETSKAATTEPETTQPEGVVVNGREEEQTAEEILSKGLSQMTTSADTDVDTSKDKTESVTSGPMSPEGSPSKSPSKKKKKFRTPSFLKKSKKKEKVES

## Band 3 (from UniProt P02730)
  pKd: 7.00
